Substitutions are numbered along the chain they refer to.
T1: Cyno Nectin4 (Cyno, UniProt Q96NY8 32-510 (human entry))
T1 construct: Expressed on HEK293 cells (HEK-cynoNectin4)
T1 chain: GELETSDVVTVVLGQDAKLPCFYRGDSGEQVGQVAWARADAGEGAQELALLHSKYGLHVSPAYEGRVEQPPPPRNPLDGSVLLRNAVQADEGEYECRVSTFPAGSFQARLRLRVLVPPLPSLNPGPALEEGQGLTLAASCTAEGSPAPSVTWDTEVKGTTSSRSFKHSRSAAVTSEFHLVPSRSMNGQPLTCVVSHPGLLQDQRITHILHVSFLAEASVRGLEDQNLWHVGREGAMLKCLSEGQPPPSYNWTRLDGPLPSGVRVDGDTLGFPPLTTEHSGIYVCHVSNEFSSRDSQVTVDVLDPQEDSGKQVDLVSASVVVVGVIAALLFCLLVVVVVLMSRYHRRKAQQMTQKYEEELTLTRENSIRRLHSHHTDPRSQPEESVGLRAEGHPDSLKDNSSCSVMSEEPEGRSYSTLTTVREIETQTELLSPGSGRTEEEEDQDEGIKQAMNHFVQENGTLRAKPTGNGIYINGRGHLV

T2: human Nectin-4(C-6His), Novoprotein Cat# CJ19 (human, UniProt Q96NY8 32-349)
T2 construct: Bought protein; also called recombinant human Nectin4 protein; antigen Nectin-4
T2 sequence: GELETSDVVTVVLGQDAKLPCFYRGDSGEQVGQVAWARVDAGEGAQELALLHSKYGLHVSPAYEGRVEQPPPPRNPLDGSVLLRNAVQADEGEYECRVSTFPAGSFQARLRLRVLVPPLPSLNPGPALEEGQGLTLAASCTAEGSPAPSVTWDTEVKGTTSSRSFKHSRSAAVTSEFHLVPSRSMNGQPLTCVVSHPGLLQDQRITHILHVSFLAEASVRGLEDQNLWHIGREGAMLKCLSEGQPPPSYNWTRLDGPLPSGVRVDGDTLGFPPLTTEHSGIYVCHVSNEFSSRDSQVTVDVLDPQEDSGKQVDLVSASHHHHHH

T3: His-tagged human NECTIN4 (human, UniProt Q96NY8 32-349)
T3 construct: Antigen of the BIAcore assay; also called antigen; recombinant NECTIN4 protein; not shown: His tag
T3 sequence: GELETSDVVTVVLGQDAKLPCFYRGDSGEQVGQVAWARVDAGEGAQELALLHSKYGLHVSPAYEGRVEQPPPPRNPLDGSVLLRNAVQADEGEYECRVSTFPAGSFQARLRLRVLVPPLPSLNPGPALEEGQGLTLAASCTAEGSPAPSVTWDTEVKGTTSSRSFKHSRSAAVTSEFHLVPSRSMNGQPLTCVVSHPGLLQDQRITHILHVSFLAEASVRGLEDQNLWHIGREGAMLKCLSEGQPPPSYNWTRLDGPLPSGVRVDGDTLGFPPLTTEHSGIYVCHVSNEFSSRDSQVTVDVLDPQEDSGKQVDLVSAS

T4: human Nectin-1(C-6His), Novoprotein Cat# C492 (human, UniProt Q15223 31-334, limits assumed)
T4 sequence: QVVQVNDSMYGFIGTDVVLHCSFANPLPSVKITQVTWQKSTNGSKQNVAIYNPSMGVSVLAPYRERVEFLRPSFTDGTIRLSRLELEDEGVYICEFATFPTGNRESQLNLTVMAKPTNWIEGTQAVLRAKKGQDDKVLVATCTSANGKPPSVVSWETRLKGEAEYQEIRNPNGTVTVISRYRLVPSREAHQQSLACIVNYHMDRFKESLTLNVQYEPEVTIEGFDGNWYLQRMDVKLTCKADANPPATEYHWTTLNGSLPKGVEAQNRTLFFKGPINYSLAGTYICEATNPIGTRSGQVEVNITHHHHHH

T5: murine Nectin4 (NP_082169) (murine, UniProt Q8R007 31-508)
T5 construct: whole, on cells; also called muNectin4
T5 sequence (looked up): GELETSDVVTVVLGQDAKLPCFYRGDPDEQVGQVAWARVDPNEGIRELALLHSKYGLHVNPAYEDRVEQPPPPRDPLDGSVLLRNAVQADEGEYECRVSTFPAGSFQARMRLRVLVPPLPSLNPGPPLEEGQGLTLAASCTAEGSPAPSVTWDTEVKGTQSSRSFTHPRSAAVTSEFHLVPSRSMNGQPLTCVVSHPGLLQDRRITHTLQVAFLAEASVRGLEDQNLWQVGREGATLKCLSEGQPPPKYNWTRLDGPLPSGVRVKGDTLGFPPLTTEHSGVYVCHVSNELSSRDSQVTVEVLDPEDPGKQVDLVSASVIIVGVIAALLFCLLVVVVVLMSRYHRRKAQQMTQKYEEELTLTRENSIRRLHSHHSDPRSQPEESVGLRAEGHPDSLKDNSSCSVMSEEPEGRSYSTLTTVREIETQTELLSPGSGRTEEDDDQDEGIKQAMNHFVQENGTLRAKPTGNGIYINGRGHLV

T6: human Nectin-4 (human, UniProt Q96NY8 32-510)
T6 construct: whole, on cells; Cell-surface target of the FACS, endocytosis and proliferation assays (CHO-huNectin4 S8 cells, BT474 cells); the assay field says which cells; also called huNectin4; PVRL4
T6 sequence (looked up): T1 chain with A39V, V230I, T437A

T7: human Nectin-2(C-6His), Novoprotein Cat# C440 (human, UniProt Q92692 32-360, limits assumed)
T7 sequence: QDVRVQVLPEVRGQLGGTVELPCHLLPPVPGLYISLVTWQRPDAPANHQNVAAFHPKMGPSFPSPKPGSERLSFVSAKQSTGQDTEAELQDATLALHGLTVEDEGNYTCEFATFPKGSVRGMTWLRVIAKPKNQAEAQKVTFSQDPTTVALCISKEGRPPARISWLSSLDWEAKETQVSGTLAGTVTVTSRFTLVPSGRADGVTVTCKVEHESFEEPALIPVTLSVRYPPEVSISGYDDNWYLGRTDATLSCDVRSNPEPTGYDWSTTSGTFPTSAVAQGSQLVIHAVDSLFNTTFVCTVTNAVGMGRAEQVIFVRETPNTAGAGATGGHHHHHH

B1: 42D20 hz63 (antibody, V domains shown)
VH: QVQLQESGPGLVKPSETLSLTCTVSGFSLIDYGVSWIRQPPGKGLEWIGVIWGGGKIYYNSVLKSRVTISKDNSKSQVSLKLSSVTAADTAVYYCAKQGGLLFYAMDYWGQGTLVTVSS
VL: DIVMTQSPDSLAVSLGERATINCKSSQSLLNTYSQKNYLAWYQQKPGQSPKLLIYFASTRESGVPDRFSGSGSETDFTLTISSLQAEDLAVYFCQQHYNTPFTFGAGTKLELKR
notes: Humanized
B2: murine antibody 5M21 (antibody, V domains shown)
VH: QVQLQQSGPELVKPGASVRITCKASGYTFTTYYIHWVKQRPGQGLEWIGWIYPGNVNTKYNEKFKGKATLTADKSSSTAYMQLSSLTSEDSAVYFCARGLYYFDYWGQGTTLTVSS
VL: SIVMTQTPKFLLVSAGDRLTITCKASQSVSNDVAWYQQKPGQSPKLLIYYASNRYTGVPDRFTGSGYGTDFTFTISTVQAEDLAVYFCQQDYSSPYTFGGGTKLEIK
notes: Murine monoclonal antibody from hybridoma; also called mIgG 5M21
B3: murine antibody 20M12 (antibody, V domains shown)
VH: B2 VH with T21S, T31S, V56A, T58N, K63N, G99S, L100V
VL: B2 VL with I2V, L19V, Y55N, T74N
notes: Murine monoclonal antibody from hybridoma; also called mIgG 20M12
B4: murine antibody 30J3 (antibody, V domains shown)
VH: EVQLQQSGPDLVKPGASVKISCKASGYSFTDYYMHWVKQSRGKGLEWIGRVNPNNGNTLYNQKFRGKAILTVDKSSSTAYMELRSLTSDDSAVYYCAREDRYAFAYWGQGTLVTVSA
VL: DIVLTQSPASLAVSLGQRATISCRASQSVSTSSYTYMHWYQQKPGQPPKLLIKYASNLESGVPARFIGSGSGTDFTLNIHPVEEEDTATYYCQHTWEIPYTFGGGTKLEIK
notes: Murine monoclonal antibody from hybridoma; also called mIgG 30J3

How the values were obtained:
Cyno Nectin4 = biological target: T1, Cyno Nectin4; assay: FACS on HEK-cynoNectin4 cells
[1] = biological target: T2, human Nectin-4(C-6His), Novoprotein …; assay: ELISA, plate coated with 1 µg/ml human Nectin-4(C-6His), HRP-labelled secondary antibody, absorbance at 450 nm
Experimental: (§1) Plates were coated with 1 µg/ml of the antigens and incubated at 4° C. overnight; next, antibodies serially diluted were added into the plates. Finally, the HRP-labeled secondary antibody was added, and absorbance at 450 nm was detected.

His-tagged human NECTIN4 = biological target: T3, His-tagged human NECTIN4; assay: SPR (BIAcore S200), antigen on CAP chip, antibody as analyte, 1:1 fit
Experimental: Interactions between the antibodies and the antigen were measured using a BIAcore instrument S200 from GE. Referring to the instructions provided in Biotin Capture Kit from GE Healthcare, the analytical channel and the control sample channel on CAP sensor chip were first coupled with antigen i.e. His-tagged human NECTIN4, then samples containing antibodies (diluted 3-fold from an initial concentration of 20 nM respectively and solutions of each antibody of 8 concentrations were obtained totally, and the concentration 0.741 nM was set to be repeated) were allowed to flow through both the analytical channel and the sample channel, and the photoreactions upon antibody-antigen binding were measured. Association constant Kon and dissociation constant Koff and affinity constant KD of each antibody were finally obtained by instrument software fitting (1:1 binding mode) analysis.

[2] = biological target: T4, human Nectin-1(C-6His), Novoprotein …; assay: ELISA, plate coated with 1 µg/ml human Nectin-1(C-6His), absorbance at 450 nm. The text names only a goat anti-rabbit HRP secondary antibody
Experimental: as §1

[3] = biological target: T5, murine Nectin4 (NP_082169); assay: FACS on HEK-muNectin4 cells
human Nectin-4 [4] = biological target: T6, human Nectin-4; assay: FACS on CHO-huNectin4 S8 cells
[5] = biological target: T7, human Nectin-2(C-6His), Novoprotein …; assay: ELISA, plate coated with 1 µg/ml human Nectin-2(C-6His), absorbance at 450 nm. The text names only a goat anti-rabbit HRP secondary antibody
Experimental: as §1

human Nectin-4 [6] = biological target: T6, human Nectin-4; assay: cell-based or functional assay
human Nectin-4 [7] = biological target: T6, human Nectin-4; assay: FACS on BT474 cells
Experimental: (§2) The solutions of different concentrations were added to 384-well plates, 10 µl per well.
(§3) BT474 cells (breast cancer cells) expressing Nectin-4 on the cell surface were collected by centrifugation at 100 g at room temperature for 5 minutes, and then the cells were washed with PBS containing 0.5% BSA once and were centrifuged at 100 g at room temperature for 5 minutes. […] After incubation at 4° C. for 1 hour, fluorescently labeled goat anti-human IgG secondary antibody was added. After continued incubation at 4° C. for 1 hour, mean fluorescence readings of the cell populations were analyzed by a flow cytometer.

human Nectin-4 [8] = biological target: T6, human Nectin-4; assay: cell-based or functional assay; remark: listed apart in the source
human Nectin-4 [9] = biological target: T6, human Nectin-4; assay: FACS on BT474 cells; remark: listed apart in the source
Experimental: as §2, §3

Binder	EC50 (ng/ml), inhibition of proliferation of BT474 cells (human Nectin-4 [6]) [ng/mL]	Percentage of cell killing at the highest concentration (human Nectin-4 [6]) [%]	EC50 (human Nectin-4 [7]) [µg/mL]	Endocytosis efficiency (%) (human Nectin-4 [8])	further results
B1					EC50 (Cyno Nectin4): 2.45 to 4.06 µg/mL; EC50 (read off the curve) [1]: ~0.1 µg/mL; Kd (His-tagged human NECTIN4): 1.8 nM; binding result [2]: no binding (tested: about 2.5 µg/ml (last point)); EC50 [3]: 4.7 µg/mL; EC50 (human Nectin-4 [4]): 0.946 µg/mL; binding result [5]: no binding (tested: 10 µg/ml)
B2	42.3	33.5	25.4	69	
B3					EC50 (human Nectin-4 [9]): 83.8 µg/mL
B4	16.9	52.8	75	56	
